Drawing on publication PMC3406060, this text covers EC50 of ligand-induced BRET (Luc/YFP on the two ß-subunits) of partially purified receptors, EC50 of PIP3 production (BRET, Luc-Akt-PH and membrane YFP) in living MDA-MB231 cells and EC50 of ligand-induced BRET (Luc/YFP on the two ß-subunits) of partially purified receptors, series with M1 and M2 for five substances.

The target of assay [1] is IRB homodimer (IRB-Luc/IRB-YFP) (UniProt P06213).
Assay [2] concerns the target IRA homodimer (IRA-Luc/IRA-YFP) (UniProt P06213).
Assay [3] deals with IRA/IGF1R hybrid receptor (IRA-Luc/IGF1R-YFP) (UniProt P06213).
For assay [4], the target named is IRB/IGF1R hybrid receptor (IRB-Luc/IGF1R-YFP) (UniProt P06213).
Assay [5] addresses insulin receptor (IR), endogenous in MCF-7 and MDA-MB231 cells (human (endogenous in MCF-7 and MDA-MB231)) (UniProt P06213).
The target in assay [6] is IRB homodimer (IRB-Luc/IRB-YFP) (UniProt P06213). The source holds these as a separate data set.
The target in assay [7] is IRA homodimer (IRA-Luc/IRA-YFP) (UniProt P06213). The source holds these as a separate data set.
Assay [8] has as its target IRA/IGF1R hybrid receptor (IRA-Luc/IGF1R-YFP) (UniProt P06213). This is another data set of the same source.
The target in assay [9] is IRB/IGF1R hybrid receptor (IRB-Luc/IGF1R-YFP) (UniProt P06213). This is another data set of the same source.

For the substance “glulisine (B3Lys,B29Glu-insulin) (ligand)”, the EC50 of ligand-induced BRET (Luc/YFP on the two ß-subunits) of partially purified receptors amounted to 1.64 nM in assay [1], 1.61 nM in assay [2], 183 nM in assay [3] and 107 nM in [4]. In addition, the EC50 of PIP3 production (BRET, Luc-Akt-PH and membrane YFP) in living MDA-MB231 cells in assay [5] worked out at 0.84 nM.

As for “Glargine metabolite M2 (A21Gly,B30desThr-insulin) (ligand)”, the EC50 of ligand-induced BRET (Luc/YFP on the two ß-subunits) of partially purified receptors, series with M1 and M2 in [6] was determined as 6.31 nM; in assay [7], 13.8 nM; in [8], 315 nM; in assay [9], 169 nM.

“detemir (B29Lys(e-tetradecanoyl),desB30)-insulin) (ligand)”: the EC50 of ligand-induced BRET (Luc/YFP on the two ß-subunits) of partially purified receptors in assay [1] amounted to 5.24 nM; in assay [2] it was 5.13 nM; in [3], 335 nM; in [4], 175 nM. In assay [5], this substance gave an EC50 of PIP3 production (BRET, Luc-Akt-PH and membrane YFP) in living MDA-MB231 cells of 2.3 nM.

Consider “IGF1 (from UniProt P05019 49-118) (ligand)”, for which the EC50 of ligand-induced BRET (Luc/YFP on the two ß-subunits) of partially purified receptors, series with M1 and M2 amounted to 130 nM in assay [6], 50.6 nM in [7], 4.23 nM in assay [8] and 3.05 nM in [9]. The EC50 of ligand-induced BRET (Luc/YFP on the two ß-subunits) of partially purified receptors in assay [1] was 50 nM; in [2], 34.4 nM; in [3], 3.01 nM; in assay [4], 2.87 nM.

In the case of “Glargine metabolite M1 (A21Gly-insulin) (ligand)”, the EC50 of ligand-induced BRET (Luc/YFP on the two ß-subunits) of partially purified receptors, series with M1 and M2 in assay [6] came to 9.64 nM; in assay [7] it was 16.7 nM; in assay [8] it was 225 nM; in [9] it was 147 nM.
